Data: patent CN114957460A (dated 2022)

Assays:
Experiment in all cases: cell-based or functional assay
[1] = target: 双组分毒素HlgAB (金黄色葡萄球菌 (Staphylococcus aureus), UniProt P0A074 30-309; P0A077 26-325)
[2] = target: 双组分毒素HlgA+LukD (金黄色葡萄球菌 (Staphylococcus aureus), UniProt P0A074 30-309; O54082 27-327)
[3] = target: 双组分毒素HlgA+LukF (金黄色葡萄球菌 (Staphylococcus aureus), UniProt P0A074 30-309; P31715 26-323)

Measured: 兔红细胞溶血中和 (上清OD405)

B1: 鼠源抗原结合蛋白17C7 (antibody, V domains shown)
VH: EVQLQQSGAELVRSGASVKLSCTASGFNIKDYYMHWVKQRPEQGLEWIGWIDPENDIGEYAPKFQGKATMTADTSSNTAYLQLSSLTSEDTAVYFCNALWGGVLDYWGQGTSVTVSA
VL: DVVMTQTPLSLPVSLGDQASISCRSSQSLVNSNGNTYLHWYLQKPGQSPNLLIYRVSNRFSGVPDRFSGSGSGTDFTLKISRVEAEDLGVYFCSQSTHVPYTFGGGTKLEIKR
4 µg: all assays above
